Laboratory results published in article PMC10703879 (2023).

T1: BCMAECD-Fc (dimerized, Fc-tagged human BCMA extracellular domain) (human, UniProt Q02223-1 1-54, not fully specified)
T1 chain: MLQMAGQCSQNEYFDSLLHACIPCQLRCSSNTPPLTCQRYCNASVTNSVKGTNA

T2: BCMAECD-His (monomeric, His-tagged human BCMA extracellular domain) (human, UniProt Q02223-1 1-54)
T2 chain: T1 chain

B1: Nb2 (anti-BCMA nanobody 2 of the cilta-cel CAR) (VHH)
VHH: EVQLVESGGGLVQAGGSLRLSCAASGRTFTMGWFRQAPGKEREFVAAISLSPTLAYYAESVKGRFTISRDNAKNTVVLQMNSLKPEDTALYYCAADRKSVMSIRPDYWGQGTQVTVSS
B2: Nb1 (anti-BCMA nanobody 1 of the cilta-cel CAR) (VHH)
VHH: QVKLEESGGGLVQAGRSLRLSCAASEHTFSSHVMGWFRQAPGKERESVAVIGWRDISTSYADSVKGRFTISRDNAKKTLYLQMNSLKPEDTAVYYCAARRIDAADFDSWGQGTQVTVSS

Legend:
[1] = biological target: T1, BCMAECD-Fc (dimerized, Fc-tagged human …); test: SPR
[2] = biological target: T2, BCMAECD-His (monomeric, His-tagged …); test: SPR

Row | Binder | koff [1] | koff [2]
1 | B1 | 0.0108 s⁻¹ | 0.0264 s⁻¹
2 | B2 | 2.94e-05 s⁻¹ | 6.52e-05 s⁻¹
